Columns and labels:
[1] = molecular target: T1, human Shq1 CS domain without 6XHis-tag (hCS) (human, UniProt Q6PI26 1-96, uniformly 15N-labelled); experiment: NMR titration
T1 sequence (looked up): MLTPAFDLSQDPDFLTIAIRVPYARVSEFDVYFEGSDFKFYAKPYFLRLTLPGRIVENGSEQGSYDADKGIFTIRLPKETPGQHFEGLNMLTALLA

crystal structure = molecular target: the molecule itself; experiment: crystal structure

B1: Dys2S peptide (dyskerin residues 62-73) (peptide)
peptide: LNVRTTHYTPLA
Kd [1]: > 500 µM

B2: human Shq1 CS domain P22S with N-terminal 6XHis-tag (his-hCS(P22S)) (domain or fragment)
chain: MAHHHHHHVDDDDKMLTPAFDLSQDPDFLTIAIRVSYARVSEFDVYFEGSDFKFYAKPYFLRLTLPGRIVENGSEQGSYDADKGIFTIRLPKETPGQHFEGLNMLTALLA
binding result (crystal structure): binds

From paper PMC4323627 (Journal of molecular biology, 2014)
